Source: publication doi:10.1101/781922 (bioRxiv, 2019)

Target: T1, Arabidopsis TIR1, coexpressed with AtASK1 (His10-eGFP-FLAG-(TEV)-AtTIR1 and His10-(TEV)-AtASK1) (Arabidopsis, UniProt Q570C0;Q39255)
T1 sequence 1: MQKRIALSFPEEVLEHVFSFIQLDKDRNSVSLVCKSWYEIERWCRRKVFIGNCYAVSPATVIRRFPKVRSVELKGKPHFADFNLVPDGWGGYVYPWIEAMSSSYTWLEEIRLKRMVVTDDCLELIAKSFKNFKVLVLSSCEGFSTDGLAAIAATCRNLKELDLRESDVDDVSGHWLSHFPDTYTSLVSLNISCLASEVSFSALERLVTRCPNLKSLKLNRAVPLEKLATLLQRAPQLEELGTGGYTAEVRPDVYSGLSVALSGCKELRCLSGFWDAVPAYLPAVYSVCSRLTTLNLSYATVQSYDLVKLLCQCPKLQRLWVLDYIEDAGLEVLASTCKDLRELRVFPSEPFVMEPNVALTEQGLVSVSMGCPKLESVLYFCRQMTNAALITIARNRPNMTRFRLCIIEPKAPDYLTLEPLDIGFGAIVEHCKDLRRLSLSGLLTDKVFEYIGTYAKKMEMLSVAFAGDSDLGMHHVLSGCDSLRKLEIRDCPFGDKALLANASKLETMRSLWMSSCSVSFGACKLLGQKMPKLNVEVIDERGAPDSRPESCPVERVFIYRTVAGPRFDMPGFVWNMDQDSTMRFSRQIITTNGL
T1 sequence 2: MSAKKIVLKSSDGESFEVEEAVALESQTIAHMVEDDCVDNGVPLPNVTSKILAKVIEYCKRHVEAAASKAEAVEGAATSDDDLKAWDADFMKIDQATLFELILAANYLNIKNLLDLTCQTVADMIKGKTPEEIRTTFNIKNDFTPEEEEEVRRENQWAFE
Test: NMR titration

B1: AXR3 DI/DII (N-terminal half, domains I and II, of the Aux/IAA protein AXR3/IAA17) (domain or fragment)
chain: MMGSVELNLRETELCLGLPGGDTVAPVTGNKRGFSETVDLKLNLNNEPANKEGSTTHDVVTFDSKEKSACPKDPAKPPAKAQVVGWPPVRSYRKNVMVSCQ
binding result: binds
